Source: the DeepSol protein solubility set

Assay: soluble on expression in E. coli; label from the status in PepcDB or PDB records

Sequence | soluble on expression in E. coli
MDFKDILRQLSERIEKLRDNLQTEEATKNALIMPFIQAMGYDVFNPLEVIPEFTCDIGTKKGEKIDYAIMRDNEPIILIECKHWRDTLTLADNQLLRYFHVSSAKFGMLTNGIIYRFYTDLDQANKMDEKPFLEVNMLDLRDNQIEELKQFHKSYFDVDKILSTASELKYMKELKDLILAEMNEPSEQFVRMLAKQVYDGIITAKIFEQFKDLTQKSFKSVINDLITARFKTVMDKSKEVAASEEQSQEQDDSNEPLVVTTEAEMEAYMIVKGILRKYINIDRIASRDTQSYFSVLLDDNNRKPICRFYFNTANKYLATFEEGKKEVKTLLNSLDDLFMHEKSIAKSLALYVDTEESALIVKSKE | soluble
MATSGTYVTEVPLKGSAKNHYKRWKSENQLFPDAIGHHIQGVTVHEGDWDSHGAIKSWNYTCDGKQEVFKEKRELDDQKMAVTFRGLDGHVMEQLKVYDVIFQFVPKSQEGCVCKVTMFWEKRYEDSPEPIKYMKFVTSLAADMDDHILKNQSKA | soluble
MDVRQVLHMKGGAGENSYAMNSFIQRQVISITKPITEAAITALYSGDTVTTRLAIADLGCSSGPNALFAVTELIKTVEELRKKMGRENSPEYQIFLNDLPGNDFNAIFRSLPIENDVDGVCFINGVPGSFYGRLFPRNTLHFIHSSYSLMWLSQVPIGIESNKGNIYMANTCPQSVLNAYYKQFQEDHALFLRCRAQEVVPGGRMVLTILGRRSEDRASTECCLIWQLLAMALNQMVSEGLIEEEKMDKFNIPQYTPSPTEVEAEILKEGSFLIDHIEASEIYWSSCTKDGDGGGSVEEEGYNVARCMRAVAEPLLLDHFGEAIIEDVFHRYKLLIIERMSKEKTKFINVIVSLIRKSD | soluble
VQAANLMDRIKANPVSEKNIDEKFIYNTADFSIELFKNSIDDKENSLISPLSAMLALAMTANGADNETLAQMEKALGKDISIEDLNKYLYTYMKKLPNEEKSKLTIANSIWFKENDFMPSKDFLQIIADYYKADIFKAAFDSSTVSDINNWVKSKTNGMIDKILNKIDPEDVMYLINAVAFDAEWETVYEKASVHEDIFTDVYGNRQKVEFMNSEENLYIEEENAIGFVKPYAKNHYSFVAILPDENISVNEYIKTLTGQKFIDLIKNAKITLVRASLPKFKYEYTIKMNETLESLGMTDAFLPDKADFSKLGKSDIGNLYISEVLHKTFISVDELGTKAGAVTSVDITAAGIPVNFKTVKLNRPFIFAIIDNSTNLPIFIGTVLSL | soluble
MELSSPGVGSGLDVKNLVDAIVTAEITPSQVRHDKQLNSVNTELSALGQLKSYLTNLQTSLAKLSSLSQFYTMKSTISDPNYFSATLGTGATKNTYQIEIQKLAQQHS | not soluble
MKPWLITPERLTSEQIGLLDHFFDRGLERLHLRLPSAGEEDYSQVIEAVAACYRRRIVVHDHPRLVGRYGLCGLHLPERVWKGMTDRPQLPDGCTVSASCHAIEDIESFPFRLDYCFLSPVFDSLCKVGYAGRFSPDS | not soluble
MSTFSFIIVNNEQVRIHDIQGKSHMSPYNGKKVNNVEGVVTALDKNGFYIEDNQPDNDPATSEGMYVYKKDANVAVGDLIQVDGVVEEYVGPGYAERFETDLTTTEIKASRVVVIAKDQSLPAPIVLGENGVKIPDQIIDNDAFGLFDPNEDAIDFYESIEGMRVTMPTPKVIAPQKNGNLYVTVKNGGDKIVTQYGTPLLDENQLNPERLSVKVPRDYVAKVGDTFTGDITGVVGYDYGSFRISPITELPAVVDGGFKQVGANIQPRLDKLTVATYNIENFSANKKETTDEKVKALAYSIKYNLKMPDIIGVEEMQDNNGSINDLEHHHHHH | not soluble
MSETAKRLLRRVEAIDAAAAENRARAEQYRQMTEKLAAVTGTATSPDGVVTVVAGPDGSVKEVTFSEQVRKADPAALSASVVHTIAQARVNATREQAEIMRRNLDDTHLLDQVLAEDARLFGDKQPEDPGPPPPAAVPTGGTPAGRPRTQPARQAYNDDDSFEDFQVLRRS | not soluble
MSLQTPDTATTAPYLLAGAPTFDLSISQFREDFNSQNPSLPLNEFRAIDSSPDKANLTRAASKINENLYASTALERGTLKIKSIQMTWLPIQGPEQKAAKAKAQEYMAAVIRTLTPLMTKTQSQKKLQSLLTAGKNKRYYTETEGALRYVVADNGEKGLTFAVEPIKLALSESLEGLNKEGHHHHHH | soluble
MHHHHHHAMGTKKSAAEASKKPRQKRTATKQYNVTQAFGRRGPEQTQGNFGDQDLIRQGTDYKHWPQIAQFAPSASAFFGMSRIGMEVTPSGTWLTYHGAIKLDDKDPQFKDNVILLNKHIDAYKTFP | soluble
MKIRSLIRVRLTRFFPSDRYIKNRCSGADGVLIDFEKKEDKVDDYKLSSFHRLKNSKFSLPKLLVDPVTTNSNQWIPRLIEEKSVDGVAMRNFTDDVISLDNEIFTMIWDTREQRITHSIISYHRINDCDIMWNSSIRTAVQDSLEHDIQPLAARTLRFRDYETAVQEFEILRQIGFTGAVIRNPNLIEMTNEIFEK | not soluble
MFSSIGWPEIFTVLILGLIIIGPERLPKVIEDVRAAIYAAKKAINNAKEELNGNLGAEFDEFREPINKIASIQRMGPKAVLTKALFDEDENFMDNFDPKKIMASGTEGEAYRERGINPQPAGDSASPQTPSNKESQPKAGFSWDDIT | not soluble
GPGSMTAGAPTTVAGEYPRPSASLHPSVDCSSLNRVPTATAAAPPPPSPRLSGYVMPSVVNPYSQGASQQPAMAHVSEPVNPASYLQQANAMGRWSYQQPPLQQPQYPTLDPVATRVAAIDAEEAAMAAEEMTMRAKLAELQVARKQQEEEQLYLSHGWAQMLEKEERYYTEPVIDLRPDIMAREQQCAMLHNHLQQVEAQAQHAQSQLQGTEYILRDAESFEQERRRVQDAFQEVERRRRECVARAERYFDVEAKRVVEGNKVIRKLDSQLREMTQRGPLAQLQDGNRHPFHRS | not soluble
MIPDFQTLMLPLLKCVSDGQEHKYRDIIEHLAAEFEVTDEERKELLASGSKAVFDNRVGWARTYLKKAGLLDSPKRAILIISDLGREILSKNPPKIDTKYLRRFPAFIEFQNGYRNDGETEEESITEKIHEQTPEEVLDKAYQRIRKSLASELLNKVIDLSPAFFERLVVELLVKMGYGGSIKDAGKALGKSGDEGIDGTIKEDKLGLDIIYIQAKRWRPGNVVGRPELQKFVGALAGQGAKKGIFITTSNFTKEALTYTPRNETKIVLIDGEQLTQLMIDYNLGCTTQQTYELKKLDSDYFGEE | not soluble
MAHHHHHHMNESSIYIYNLTRNVSINHLKEIFMNFGTLKDVQYVTYVEESMFHEKGDGKDGDKKEDNDDKEEDDDKEEDNNKEEDNDKEEDNDKEEDNDNNDDNNDDNNDDNNDDGDDNDDNHICVHIKYENSKEAQAAKEFMDGGQIDGKIISVKYKINHKYIKTYTKKKKEKKKKN | not soluble
MGSDKIHHHHHHMSGIRLVRAKITYLHDSCTFNFINENMSVKLLWSVPYRGDRMITYESVYPIQSKDVAKLIITKVRNNPKTLSVFDRSINGKTLFIGYLEYSDNSPFYLSNRVGTIFYDEYTGTGGDVISMITTADNFDLIREDLSVYGKIVHRQVQEIEAESINGPPRLTEMQEKVLRNAFEMGFFNYPKDVHLKDIAQKIGVSAVSVDQYLREAQRKLIRAYLNG | not soluble
MTSRRLEESMGAVQMGLVNMFKGFQSKVLPPLSPKVVTEEEVNRMLTPSEFLKEMSLTTEQRLAKTRLMCRPQIIELLDMGETTHQKFSGIDLDQALFQPFPSEIIFQNYTPCEVYEVPLILRNNDKIPRLVKVVEESSPYFKVISPKDIGHKVAPGVPSIFRILFTPEENKDYAHTLTCVTEREKFIVPIKARGARAILDFPDKLNFSTCPVKYSTQKILLVRNIGNKNAVFHIKTCRPFSIEPAIGTLNVGESMQLEVEFEPQSVGDHSGRLIVCYDTGEKVFVSLYGAAIDMNIRLDKNSLTIEKTYISMANQRTITIHNRSNIIAHFLWKVFATQQEEDREKYRACDDLIKEEKDETDEFFEECITDPLLREHLSVLSRTFANQRRLVQGDSKLFFNNVFTVEPLEGDVWPNSSAEITVYFNPLEAKLYQQTIYCDILGREIRLPLRIKGEGMGPKIHFNFELLDIGKVFTGSAHCYEAILYNKGSIDALFNMTPPTSALGACFVFSPKEGIIEPSGVQAIQISFSSIILGNFEEEFLVNVNGSPEPVKLTIRGCVIGPTFHFNVPALHFGDVSFGFPHTLICSLNNTSLIPMTYKLRIPGDGLGHKSISYCEQHVDYKRPSWTKEEISSMKPKEFTISPDCGTIRPQGFAAIRVTLCSNTVQKYELALVVDVEGIGEEVLALLITARYCSPACSSPESPPSLQ | soluble
MADPPPNPSSVPPNGNLTGTPSAGNAAAVAPMAHEKDRQSKEGDEIVTKSGKKYKLGPVLGEGGYGTVFLSQDDDIKIAVIAVSCFPYIIVQNEVWFKEQKKHHVIHVVHNFSSKLLVNTTKYSRSSTVMRFNLHLITRKSTNYLWRLEKNANFVIVKTGIGKMKQSRPLSPQSLHSLIKNFAPRLTNSQKRRVLVLIFLISWSPISLPFLCTSISHHELIGINVLIKKIYVLQYFLNI | not soluble
MGSDKIHHHHHHMKEILKQQYAIIDIGSNTMRLVIYEKQNGGFYKEIENTKVVARLRNYLVDGVLIEEGIEVLLQTLFQFQESTRFHQLRHVLCVATATIRQAENQEEIKKLVEGQTDFTLRVLSEYEEARYGYLAVMNSTSFSEGITVDIGGGSTEVTYFRNREILEYHSFPFGALSLKQQFIKEDIPTEEELDKLQTYLEYQFRTLPWLIDKKLPLIAIGGSARNLVKIHQNLICYPIAGVHLYKMKEEDIKNVKEELEGLSFIELQKLEGLAKDRADTIVPAVEVFHTLVNVIEAPAFVLSRKGLREGVFYEELTKDLGISYYPNVVEESLYLLSHEYEMDMEFVMQLIKHGRLICQQLEETGLISMSVKDWEVFHQAAKVFNIGKYIDEEASRLHTFYLLANKTIDGMMHKERVRLALIASYKSKMLFKQHLSPFEGWFDKNEQKKIRLLGAVLQFSAALNIRQRSLVESISITESKEGLTFKIVCEQSALAEKVQAEKQKKQLERVLKTNINLFFESKH | not soluble
RTGAELLALTTSTGKSIAQLMWDNERAWHTEAETRTGLLKIWDVMQSCVARGCGIGNPDADGTLPGPFQVKRRAPQLYRALTGNPERALQDPLSMVDWINLYAIAVNEENAAGGRVVTAPTNGAAGIIPAVLHYYTRFTPGANEQGVIDFLMTAAAIGILYKLNASISGAEVGCQGEVGVACSMAAGALAAVLGGTPQQVENAAEIGMEHNLGLTCDPVGGMVQIPCIERNAMASVKAVNAARMALRGDGSHYVSLDSVIKTMRETGADMKTKYKETSRGGLAVN | not soluble
MGSSHHHHHHSSGLVPRGSHMAAPIRFFELNTGAKLPCVGLGTYAMVATAIEQAIKIGYRHIDCASIYGNEKEIGGVLKKLIGDGFVKREELFITSKLWSNDHLPEDVPKALEKTLQDLQIDYVDLYLIHWPASLKKESLMPTPEMLTKPDITSTWKAMEALYDSGKARAIGVSNFSSKKLTDLLNVARVTPAVNQVECHPVWQQQGLHELCKSKGVHLSGYSPLGSQSKGEVRLKVLQNPIVTEVAEKLGKTTAQVALRWGLQTGHSVLPKSSSGARLKENLDVFDWSIPEDLFTKFSNIPQEKFCRATEFAHETHGFYKTIEELWDGEI | soluble
MWIPSKLTRPGRLHNAIVRPRVLDLLQQAPYYKLVLFRSPAGYGKTTMAAQWLSDKPNVGWYSIDDSDNDGFRFVNYLLQALNKATNFSCSNAQKLAEKRQISSLRSLFSEVFAEMADFHQECYVVLDDYHLITNDEIHESMRFFLKHMPDNLTVVVTSRAAPPLGTANLRVRDLMIEIGNEMLAFDTEETTRFFNQRIADGIDEDMANSLRTYVEGWPSAMQLIALQAQHQNRTLAQTVESVSQFNHAHLWDYLVEEVFDLLDHETRHFLMQVSVLDHFNDELVFALTQREDALGLIESLNRYGLFIYPLEGEHNWFRFHNLFGEFLSHERQARIPQQEKDLHRNAAVAWLQQKSPHQAIHHAQKSNDKDLVVEILNEFGWKMFNQGELSTLEHAINKLDAELLFSHPKLTMLRAWLAQSQHRYNQVGQLLEEAEEEHKKRNIELDIHYQGQA | not soluble
